Results on one substance are retold here after PMC6313988.

For this assay, the target named is hypothetical protein ST2166 (putative isocitrate dehydrogenase) from Sulfolobus tokodaii strain 7 (Sulfolobus tokodaii strain 7). In words: crystal structure; hanging-drop crystals of ST2166 (8 mg/mL) in 13% PEG 10,000, 100 mM HEPES pH 7.5, 10°C; space group P21, two monomers in the asymmetric unit; apo form at 2.0 Å and crystal soaked with 25 mM NADP+ at 2.4 Å.

The stoichiometry N is a count of units in the complex or per binding partner. “hypothetical protein ST2166 (putative isocitrate dehydrogenase) from Sulfolobus tokodaii strain 7 (enzyme)” returned a stoichiometry N of 2.
